Source: article PMC12209456, “Serine/threonine/tyrosine kinase 1 drives pancreatic carcinogenesis via GSK3β sequestration-mediated Wnt/β-catenin pathway hyperactivation” (Signal Transduction and Targeted Therapy, 2025)

Columns and labels:
[1] = test system: GSK3β in MVBs; experiment: Co-localization of GSK3β with Rab7 and CD63 (immunofluorescence); format: cell-based
Description: (§1) PANC-1, AsPC-1, HEK293T, or HeLa cells were ﬁxed with 4% formaldehyde for 10-15 min and then blocked with 3% BSA and 0.1% Triton X-100 in PBS for 20 min at room temperature. Immunostaining was performed using the indicated antibody. Nuclei were counterstained with DAPI. Images were taken with a Leica Inverted Confocal SP8 (Leica, Germany).

[2] = test system: GSK3β sequestration in Rab5+ endosomes, PANC-1 cells; experiment: Wnt-induced GSK3β within Rab5+ endosomes, PANC-1 cells; format: cell-based, human; details: Rab5 Q79L, n = 10
Description: as §1

[3] = test system: β-catenin/TCF4 transcriptional activity; experiment: 7TGC reporter assay; format: cell-based, human; details: PANC-1 cells, EGF (100 ng/mL) or CQ (100 μM)
Description: The PCR products of STYK1, GSK3β, and Axin1 were cloned into pcDNA3.1-3×HA, pCMV-3×Flag (Sigma, E4401), and pCMV-mCherry (constructed by our lab) respectively. […] To make STYK1, β-catenin, GSK3β, or BLK mutants or truncations, a series of forwarding primers harboring the desired mutations were used in PCRs. The nucleotide sequences of all constructs were confirmed by DNA sequencing. […] DNA and interference RNA were transfected with Lipofectamine 3000 (Invitrogen, L3000015) according to the manufacturer’s instructions. shRNA for STYK1 #1: 5ʹ- [sequence] -3ʹ. #2: 5ʹ- [sequence] -3ʹ. siRNA for STYK1 was 5ʹ- [sequence] -3ʹ. siRNA for β-catenin was 5ʹ- [sequence] -3ʹ. siRNA for HRS was 5ʹ- [sequence] -3ʹ, siRNA for VPS24 was 5ʹ- [sequence] -3ʹ.

[4] = test system: CyclinD1/Axin2/C-myc; experiment: Wnt target gene expression (western blot, qRT-PCR); format: cell-based, human; details: PANC-1 cells, EGF (100 ng/mL) or CQ (100 μM)
Description: Whole-cell extracts were prepared with 1% sodium dodecyl sulfate lysis buffer with freshly added 1% proteinase inhibitor cocktail (Biomake, B14001) and 1 mM phenylmethylsulfonyl fluoride (PMSF, MCE, HY-B0496). Western blot was performed as described previously.[20]
Total RNA was extracted from cultured pancreatic cancer cells using Trizol reagent (Invitrogen) according to the manufacturer’s protocol. qRT-PCR was performed as previously described.^3 The mRNA expression level for each sample was normalized to the expression of GAPDH using the 2 ^-ΔΔct method^4 with three biological replicates of comparative qRT-PCR. The following primer sequences were used for qRT-PCR: GAPDH, (forward) 5′- […] -3′ and (reverse) 5′- […] -3′; CyclinD1, (forward) 5′- […] -3′ and (reverse) 5′- […] -3′; C-myc, (forward) 5′- […] -3′ and (reverse) 5′- […] -3′; Axin2, (forward) 5′- […] -3′ and (reverse) 5′- […] -3′; STYK1, (forward) 5′- […] -3′ and (reverse) 5′- […] -3′. Amplification was performed in an ABI Q3 real-time PCR system using a SYBR Green master mix (YEASEN, 11201ES08).

B1: Wnt3a: Wnt3a, R&D systems (5036-WN) (protein, UniProt P56704 19-352, looked up)
Protein Wnt-3a: SYPIWWSLAVGPQYSSLGSQPILCASIPGLVPKQLRFCRNYVEIMPSVAEGIKIGIQECQHQFRGRRWNCTTVHDSLAIFGPVLDKATRESAFVHAIASAGVAFAVTRSCAEGTAAICGCSSRHQGSPGKGWKWGGCSEDIEFGGMVSREFADARENRPDARSAMNRHNNEAGRQAIASHMHLKCKCHGLSGSCEVKTCWWSQPDFRAIGDFLKDKYDSASEMVVEKHRESRGWVETLRPRYTYFKVPTERDLVYYEASPNFCEPNPETGSFGTRDRTCNVSSHGIDGCDLLCCGRGHNARAERRREKCRCVFHWCCYVSCQECTRVYDVHTCK
- separation of GSK3β into MVBs ([1]; Wnt activation, discussion summary): supports the separation of GSK3β into MVBs
- co-localization of GSK3β with Rab7 and CD63 ([1]; under Wnt3a treatment): detectable co-localization with Rab7 and CD63
- amount of GSK3β within Rab5+ endosomes [2]: remarkably increased the amount of GSK3β within Rab5^+ endosomes

B2: EGF: EGF (100 ng/mL) treatment (protein, UniProt P01133 23-1207, looked up)
Pro-epidermal growth factor: PQHWSCPEGTLAGNGNSTCVGPAPFLIFSHGNSIFRIDTEGTNYEQLVVDAGVSVIMDFHYNEKRIYWVDLERQLLQRVFLNGSRQERVCNIEKNVSGMAINWINEEVIWSNQQEGIITVTDMKGNNSHILLSALKYPANVAVDPVERFIFWSSEVAGSLYRADLDGVGVKALLETSEKITAVSLDVLDKRLFWIQYNREGSNSLICSCDYDGGSVHISKHPTQHNLFAMSLFGDRIFYSTWKMKTIWIANKHTGKDMVRINLHSSFVPLGELKVVHPLAQPKAEDDTWEPEQKLCKLRKGNCSSTVCGQDLQSHLCMCAEGYALSRDRKYCEDVNECAFWNHGCTLGCKNTPGSYYCTCPVGFVLLPDGKRCHQLVSCPRNVSECSHDCVLTSEGPLCFCPEGSVLERDGKTCSGCSSPDNGGCSQLCVPLSPVSWECDCFPGYDLQLDEKSCAASGPQPFLLFANSQDIRHMHFDGTDYGTLLSQQMGMVYALDHDPVENKIYFAHTALKWIERANMDGSQRERLIEEGVDVPEGLAVDWIGRRFYWTDRGKSLIGRSDLNGKRSKIITKENISQPRGIAVHPMAKRLFWTDTGINPRIESSSLQGLGRLVIASSDLIWPSGITIDFLTDKLYWCDAKQSVIEMANLDGSKRRRLTQNDVGHPFAVAVFEDYVWFSDWAMPSVMRVNKRTGKDRVRLQGSMLKPSSLVVVHPLAKPGADPCLYQNGGCEHICKKRLGTAWCSCREGFMKASDGKTCLALDGHQLLAGGEVDLKNQVTPLDILSKTRVSEDNITESQHMLVAEIMVSDQDDCAPVGCSMYARCISEGEDATCQCLKGFAGDGKLCSDIDECEMGVPVCPPASSKCINTEGGYVCRCSEGYQGDGIHCLDIDECQLGEHSCGENASCTNTEGGYTCMCAGRLSEPGLICPDSTPPPHLREDDHHYSVRNSDSECPLSHDGYCLHDGVCMYIEALDKYACNCVVGYIGERCQYRDLKWWELRHAGHGQQQKVIVVAVCVVVLVMLLLLSLWGAHYYRTQKLLSKNPKNPYEESSRDVRSRRPADTEDGMSSCPQPWFVVIKEHQDLKNGGQPVAGEDGQAADGSMQPTSWRQEPQLCGMGTEQGCWIPVSSDKGSCPQVMERSFHMPSYGTQTLEGGVEKPHSLLSANPLWQQRALDPPHQMELTQ
modifications: Pro-epidermal growth factor
notes: EGF (100 ng/mL) treatment
- Wnt signaling in the 7TGC system [3]: decreased Wnt signaling in the 7TGC system
- STYK1-mediated alteration of the Wnt/β-catenin target genes C-myc, Axin2 [4]: down-regulated STYK1-mediated alteration of the Wnt/β-catenin target genes C-myc, Axin2
